Consider one protein from patent publication US6875851.

For data set [1], the target named is T1, Peptide 9.
T1 chain: VPPGEDSK

Data set [2] deals with T2, Peptide 10.
T2 chain: VEPIPY

The target in data set [3] is Peptide 1.
In data set [4] the target is T3, Peptide 11.
T3 chain: RGPFPI

Data set [5] deals with T4, Peptide 8.
T4 chain: VPPGEDSK

Data set [6] concerns the target T5, Peptide 14.
T5 chain: RHPKYKTEL

Data set [7] has as its target T6, Peptide 2.
T6 chain: RPPGF

Data set [8] addresses T7, Peptide 19.
T7 chain: GIRPYEILA

For data set [9], the target named is T8, Peptide 5.
T8 chain: RPGFSPFR

Data set [10] concerns the target T9, Peptide 13.
T9 chain: PNPNQGNFI

The target in data set [11] is T10, Peptide 16.
T10 chain: KGPPAALTL

Data set [12] deals with T11, Peptide 12.
T11 chain: ARPAK

Data set [13] deals with T12, Peptide 15.
T12 chain: GVPKTHLEL

Data set [14] concerns the target T13, Peptide 18.
T13 chain: FLREPVIFL

Data set [15] addresses T14, Peptide 22.
T14 chain: KIAGYHLEL

B1: prolyl-tripeptidyl peptidase A from P. gingivalis (protein)
chain: QSPETSGKEFTLEQLMPGGKEFYNFYPEYVVGLQWMGDNYVFIEGDDLVFNKANGKSAQTTRFSAADLNALMPEGCKFQTTDAFPSFRTLDAGRGLVVLFTQGGLVGFDMLARKVTYLFDTNEETASLDFSPVGDRVAYVRNHNLYIARGGKLGEGMSRAIAVTIDGTETLVYGQAVHQREFGIEKGTFWSPKGSCLAFYRMDQSMVKPTPIVDYHPLEAESKPLYYPMAGTPSHHVTVGIYHLATGKTVYLQTGEPKEKFLTNLSWSPDENILYVAEVNRAQNECKVNAYDAETGRFVRTLFVETDKHYVEPLHPLTFLPGSNNQFIWQSRRDGWNHLYLYDTTGRLIRQVTKGEWEVTNFAGFDPKGTRLYFESTEASPLERHFYCIDIKGGKTKDLTPESGMHRTQLSPDGSAIIDIFQSPTVPRKVTVTNIGKGSHTLLEAKNPDTGYAMPEIRTGTIMAADGQTPLYYKLTMPLHFDPAKKYPVIVYVYGGPHAQLVTKTWRSSVGGWDIYMAQKGYAVFTVDSRGSANRGAAFEQVIHRRLGQTEMADQMCGVDFLKSQSWVDADRIGVHGWSYGGFMTTNLMLTHGDVFKVGVAGGPVIDWNRYEIMYGERYFDAPQENPEGYDAANLLKRAGDLKGRLMLIHGAIDPVVVWQHSLLFLDACVKARTYPDYYVYPSHEHNVMGPDRVHLYETITRYFTDHL
As to B1, the “Cleavage site (no ↓ printed: not cleaved)” value in data set [1] is recorded as “Ac-Val-Pro-Pro-Gly-Glu-Asp-Ser-Lys”; in data set [8], “H-Gly-Ile-Arg-Pro-Tyr-Glu-Ile-Leu-Ala”; in data set [9], “H-Arg-Pro-Hyp-Gly-Phe-Ser-Pro-Phe-Arg”; in data set [11], “H-Lys-Gly-Pro-Pro-Ala-Ala-Leu-Thr-Leu”; in data set [14] it was “H-Phe-Leu-Arg-Glu-Pro-Val-Ile-Phe-Leu”; in data set [15], “H-Lys-Ile-Ala-Gly-Tyr-His-Leu-Glu-Leu”. In addition, the Cleavage site entry is “H-Val-Glu-Pro-↓-Ile-Pro-Tyr” in data set [2]; “H-Arg-Pro-Pro-↓-Gly-Phe-Ser-Pro-Phe-Arg” in [3]; “H-Arg-Gly-Pro-↓-Phe-Pro-Ile” in [4]; “H-Val-Pro-Pro-↓-Gly-Glu-Asp-Ser-Lys” in [5]; “H-Arg-His-Pro-↓-Lys-Tyr-Lys-Thr-Glu-Leu” in data set [6]; “H-Arg-Pro-Pro-↓-Gly-Phe” in [7]. Also, the Cleavage site result was “H-Pro-Asn-Pro-↓-Asn-Gln-Gly-Asn-Phe-Ile” in [10], “H-Ala-Arg-Pro-↓-Ala-D-Lys-amide” in [12] and “H-Gly-Val-Pro-↓-Lys-Thr-His-Leu-Glu-Leu” in [13].
